Test results: paper PMC7418559 (2020)

Molecular target: CK2β 1-193 (Homo sapiens, UniProt P67870)
Test: microscale thermophoresis

Sequence of CK2β 1-193 (P67870 1-193): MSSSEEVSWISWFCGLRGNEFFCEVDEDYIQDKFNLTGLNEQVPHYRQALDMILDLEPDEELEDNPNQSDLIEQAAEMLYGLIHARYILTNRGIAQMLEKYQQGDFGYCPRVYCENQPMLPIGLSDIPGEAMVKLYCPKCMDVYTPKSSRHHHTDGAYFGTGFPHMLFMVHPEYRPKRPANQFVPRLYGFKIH

B1: CK2α 1-335 (protein)
chain: MSGPVPSRARVYTDVNTHRPREYWDYESHVVEWGNQDDYQLVRKLGRGKYSEVFEAINITNNEKVVVKILKPVKKKKIKREIKILENLRGGPNIITLADIVKDPVSRTPALVFEHVNNTDFKQLYQTLTDYDIRFYMYEILKALDYCHSMGIMHRDVKPHNVMIDHEHRKLRLIDWGLAEFYHPGQEYNVRVASRYFKGPELLVDYQMYDYSLDMWSLGCMLASMIFRKEPFFHGHDNYDQLVRIAKVLGTEDLYDYIDKYNIELDPRFNDILGRHSRKRWERFVHSENQHLVSPEALDFLDKLLRYDHQSRLTAREAMEHPYFYTVVKDQARMG
modifications: CK2β fluorescently labelled (RED-NHS)
- Kd: 12 nM
